Assay results published in the supplement of paper PMC10126150.
± gives the standard deviation of the averaged measurements.

System: ATP
Test: switch fluorescence ratio, 500 uM ATP over buffer (Cy3 cluster intensity, sum of 5 cycles each) (fold (ratio)); higher = stronger signal-on switching upon ATP binding; sequences stand for … in TCGTCGGCAGCGTCAGATGTGTATAAGAGACAGTTTTTTTTTTTTTTTTTTTTTTTTT…TC
Details: aptamer strand: ATP DNA aptamer (quencher-CACCTGGGGGAGTATTGCGGAGGAAGG + anchor), 100 nM annealed; ATP concentration: 500 uM
Procedure, shortened: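 Cy3-labelled switching-strand clusters on a modified Illumina MiSeq flow-cell were annealed to 100 nM quencher-labelled ATP aptamer and imaged first in selection buffer, then after 15 min with 500 uM ATP at 22 °C. NaOH stripping and re-annealing separated each of five buffer/ATP cycles, and clusters outside 100-1000 RFU were excluded. The fluorescence ratio sums target-cycle Cy3 intensity over buffer-cycle Cy3 intensity per cluster and averages it per switch-domain sequence.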
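Also: ATP exposure 15 min at 22 °C before imaging.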

| Sequence | switch fluorescence ratio |
| --- | --- |
| GAGTTTGACC | 0.965 ± 0.03 |
| GGGTATGCAT | 0.973 ± 0.011 |
| AACGCTTATT | 1.09 ± 0.064 |
| TACGTATGAA | 1.17 ± 0.014 |
| CCAGCCTTTT | 1.025 ± 0.0039 |
| TCCGGTTTTA | 0.981 ± 0.02 |
| GTTTCATTTT | 1.01 ± 0.012 |
| ATTGAACGGG | 1.02 ± 0.016 |
| AGAAGGGCA | 0.983 ± 0.042 |
| GACGGTTAAA | 1.12 ± 0.11 |
| TACATTGTGC | 1.01 ± 0.015 |
| AGTAGTTCGG | 1.019 ± 0.0075 |
| GGATGGTGGA | 0.9966 ± 0.0093 |
| TTTGTATAGT | 1.003 ± 0.0019 |
| TTGTTGGTGA | 0.971 ± 0.033 |
| CGGGGATATT | 1.11 ± 0.23 |
| GAAATGAATA | 1 ± 0.011 |
| TTTGGAGTGC | 1 ± 0.05 |
| GGGTGCCCTA | 0.986 ± 0.051 |
| TTTTGAATTA | 1.01 ± 0.032 |
| TTGAACGCGG | 1.05 ± 0.018 |
| TACTGTAGGG | 1.12 ± 0.029 |
| TGTCAGGAAA | 0.9717 ± 0.0065 |
| ATGGCAGGTA | 0.992 ± 0.033 |
| TAGAGGCAGG | 0.985 ± 0.018 |
| GTTGAATTTT | 1.01 ± 0.032 |

| Sequence | switch fluorescence ratio |
| --- | --- |
| TGGGATTCGG | 1.03 ± 0.092 |
| GCGTAGGTAG | 0.964 ± 0.038 |
| AAGGTGGTTT | 0.957 ± 0.048 |
| CTTAGGTTTG | 1 ± 0.018 |
| GGTTGAGTGG | 1 ± 0.036 |
| ATTATGGAGG | 0.968 ± 0.016 |
| GGATAGAGAA | 0.9789 ± 0.008 |
| ACTAATAAGG | 1.04 ± 0.029 |
| TTGATTCAGC | 1.01 ± 0.012 |
| TTGGTGCATG | 1.01 ± 0.04 |
| TAGGGCTCAG | 0.9928 ± 0.0098 |
| CTAGTTTTTT | 0.9893 ± 0.0062 |
| TCCGAGGGAG | 1.05 ± 0.079 |
| TACTTTGGGG | 0.989 ± 0.022 |
| GCGGTGCTTG | 0.9901 ± 0.0071 |
| TTGATTGGTA | 1 ± 0.041 |
| GTGGTTTGGC | 1.01 ± 0.09 |
| TCATGGACTG | 1.06 ± 0.02 |
| ATTGATTGCG | 0.989 ± 0.013 |
| AAGCCAAGAG | 1.05 ± 0.027 |
| TATGTGGGGT | 0.992 ± 0.026 |
| ACGGGGTGGT | 1.065 ± 0.0059 |
| ACCACCGTTG | 1.113 ± 0.0039 |
| CCCGGGGGGG | 1.1 ± 0.13 |
| TTCACATTGG | 1.01 ± 0.03 |
| AGGCTTATAT | 1.01 ± 0.024 |

| Sequence | switch fluorescence ratio |
| --- | --- |
| TACGAGACGG | 1.095 ± 0.0059 |
| TTGTTTTGAT | 0.984 ± 0.035 |
| TATGACATTA | 1.025 ± 0.0026 |
| GGATAACTCT | 1.01 ± 0.015 |
| GAAGATGGTT | 0.969 ± 0.018 |
| AATGTTTGTC | 1.03 ± 0.1 |
| CTGGTTACGC | 1.003 ± 0.0057 |
| CCATACAGTT | 1.01 ± 0.021 |
| TTTGTCAAAC | 1.11 ± 0.13 |
| TGCGGGAGTG | 0.965 ± 0.023 |
| GGGGTAAAGC | 1 ± 0.018 |
| CGTCAAATAT | 1.13 ± 0.041 |
| GTGTTTAAAA | 0.995 ± 0.013 |
| GCAGTTGGAA | 1.058 ± 0.0089 |
| TAACCTGGAG | 1.18 ± 0.028 |
| GGTAAAAGGT | 1.02 ± 0.051 |
| TTTTTGGAGG | 1 ± 0.034 |
| GGGGTAAGTG | 0.987 ± 0.04 |
| TAGGGCACCC | 0.988 ± 0.058 |
| GCTTACGGTG | 1.01 ± 0.02 |
| TGGATGTGGG | 1.03 ± 0.031 |
| TCCATGTTGA | 1.03 ± 0.019 |
| GCCCGAGCAG | 1.22 ± 0.062 |
| TTTTAAGTGC | 1 ± 0.027 |
| GAGAAAATCT | 1.01 ± 0.033 |
| CGTCTGGTGG | 0.991 ± 0.05 |

| Sequence | switch fluorescence ratio |
| --- | --- |
| AATATATCGC | 0.977 ± 0.018 |
| CAAGATTGCC | 1 ± 0.034 |
| TCGTAGCTAA | 4.37 ± 0.23 |
| TAAGGGCTGA | 1.01 ± 0.011 |
| ATGTGTGGGC | 1.01 ± 0.021 |
| TGGGATATAG | 0.994 ± 0.022 |
| GAGCAGATTG | 1.02 ± 0.036 |
| TTTCTAGGGT | 0.994 ± 0.017 |
| GCCATGTTTT | 0.9646 ± 0.008 |
| TTCAAGGGAG | 0.995 ± 0.014 |
| TGGTATAGGT | 0.994 ± 0.038 |
| TTTTATGAG | 0.999 ± 0.031 |
| CCCATAGTAT | 1.01 ± 0.058 |
| CTTTAAGTTT | 0.9967 ± 0.0093 |
| AATCAGGAAG | 1.02 ± 0.035 |
| ATTTATATTG | 0.989 ± 0.05 |
| TTATTAGAAG | 0.978 ± 0.012 |
| TCGGACGTGC | 1.35 ± 0.1 |
| TTTAGGAAAG | 1.05 ± 0.063 |
| CAAGGACTGG | 0.997 ± 0.032 |
| TTCGGCGACG | 1.0016 ± 0.00078 |
| GAAGATTTGC | 0.973 ± 0.012 |
| AGGGGGTT | 1 ± 0.077 |
| TGATTATGGG | 0.9781 ± 0.0063 |
| AGCATTTCTT | 0.98 ± 0.042 |
| ACTGATTTAT | 1.01 ± 0.028 |

| Sequence | switch fluorescence ratio |
| --- | --- |
| GGCGTGCGTA | 1.01 ± 0.026 |
| AAAGGGCCAG | 1.02 ± 0.02 |
| TGTGGAGCTT | 1.07 ± 0.041 |
| TTTTTAGGCC | 0.999 ± 0.016 |
| AGTGGTGGGC | 0.979 ± 0.056 |
| TTGGGATGCC | 1.08 ± 0.17 |
| CATGCTATTC | 1.17 ± 0.049 |
| CGTTTTTTTT | 0.989 ± 0.02 |
| TATATACTGT | 1.02 ± 0.03 |
| CTATATTAGT | 1 ± 0.045 |
| AAAGGTTTGT | 1.02 ± 0.024 |
| TGTGGATAGG | 1.03 ± 0.012 |
| GAGGTTTAGG | 0.986 ± 0.042 |
| AGAAGATCAG | 1.02 ± 0.015 |
| TTTTCCGGCC | 1.72 ± 0.54 |
| TGGTTGTCGC | 0.991 ± 0.065 |
| AGGTCGGACA | 1.006 ± 0.0094 |
| GGGGAGGGAA | 1.01 ± 0.027 |
| GTTTGTAACG | 1.02 ± 0.015 |
| CTAGGTCTGT | 1 ± 0.011 |
| GCAGGTTGAG | 1.01 ± 0.044 |
| GATGAAGGTT | 0.992 ± 0.027 |
| GGGGATGAGG | 0.9698 ± 0.0095 |
| TTAAAGGTTT | 1.01 ± 0.018 |
| GGGTTTCAGC | 1 ± 0.053 |
| CGGTGAGTGT | 0.9608 ± 0.0063 |

| Sequence | switch fluorescence ratio |
| --- | --- |
| GTTCATTGTT | 0.941 ± 0.017 |
| GATTTCGGGA | 1.01 ± 0.04 |
| GACGGCTGGT | 1.01 ± 0.021 |
| ACGAGTTTTT | 1.01 ± 0.021 |
| CGCGGTATCT | 1.02 ± 0.033 |
| GGGACGCGCA | 0.984 ± 0.036 |
| GTAGGGGATT | 1.029 ± 0.006 |
| GTTTTTCGGT | 0.981 ± 0.026 |
| GGGTGGTTGC | 0.99544 ± 4.2e-05 |
| CCAAATCAGA | 0.986 ± 0.021 |
| TCCACCGGCT | 1.03 ± 0.052 |
| TGGTTTTCGC | 0.975 ± 0.023 |
| TAGGCTACGG | 1.03 ± 0.014 |
| AGGGATAGTT | 0.992 ± 0.0047 |
| GGGGCTAGTG | 0.977 ± 0.046 |
| TGTTAATAAG | 0.9618 ± 0.0071 |
| GGCATAGTTT | 0.969 ± 0.026 |
| ATGGCAAAGA | 0.9828 ± 0.0096 |
| ACTATCTTTG | 0.9924 ± 0.0098 |
| GGGTCTAGCG | 1.01 ± 0.0065 |
| CGGTAATTTT | 0.975 ± 0.021 |
| TTAGAGAGGT | 0.988 ± 0.03 |
| AAGTAGGTAG | 0.9786 ± 0.002 |
